Common to all, as to assay: Substrate-dependent NADPH consumption assay at 340 nm, purified enzyme (in vitro)
Type in all cases: biochemical, Bacillus megaterium
Common to all, as to conditions: other: purified enzyme, NADPH 130-150 μM, 20° C., pH 8.0

Substrate in series [1]: CCCCCCCCCCCC(=O)O
The method, then: (§1) NADPH consumption was followed at 340 nm using a Δε340=6.22 mM^−1·cm^−1. Both assays were performed at 20° C. using P450 BM3 in 100 mM potassium phosphate buffer, pH 8.0. Reaction was initiated by addition to the substrate bound enzyme of NADPH to a final concentration of 130-150 μM. In the kinetics assay the rate constant kcat was calculated from the linear part of the decrease in A340 with time, which lasted at least for the first 4 sec. The enzyme concentration typically varied between 0.4 and 0.8 μM in the binding assay and between 8 and 25 nM in the catalytic assay. Substrate stock solutions were freshly prepared the day of the assay. Fatty acid stock solutions were in 50 mM potassium carbonate, SDS was easily dissolved in water, while TCE stock solutions were prepared in ethanol. If appropriate, stocks of candidate agents may be prepared in, for example, N,N-dimethylformamide just before the assay. […] The confidence interval for Kd given in the results section is the mean±the standard deviation of at least four measurements, as calculated using the software Kaleidagraph. Similarly kcat was calculated by fitting data points to the Michaelis-Menten equation. Each data point is the mean of at least four measurements.

Substrate in series [2]: CCCCC/C=C\C/C=C\C/C=C\C/C=C\CCCC(=O)O
The method, then:
as §1

Substrate in series [3]: ClC(Cl)C(Cl)Cl
As for the experimental part:
as §1

Substrate in series [4]: CCCCCCCCCCCCOS(=O)(=O)[O-].[Na+]
The method, then: as §1

The term Km denotes the substrate concentration at which the rate is half of its maximum.

B1: cytochrome P450 BM3 (Priestia megaterium NBRC 15308 = ATCC 14581) (protein)
chain: MTIKEMPQPKTFGELKNLPLLNTDKPVQALMKIADELGEIFKFEAPGRVTRYLSSQRLIKEACDESRFDKNLSQALKFVRDFAGDGLFTSWTHEKNWKKAHNILLPSFSQQAMKGYHAMMVDIAVQLVQKWERLNADEHIEVPEDMTRLTLDTIGLCGFNYRFNSFYRDQPHPFITSMVRALDEAMNKLQRANPDDPAYDENKRQFQEDIKVMNDLVDKIIADRKASGEQSDDLLTHMLNGKDPETGEPLDDENIRYQIITFLIAGHETTSGLLSFALYFLVKNPHVLQKAAEEAARVLVDPVPSYKQVKQLKYVGMVLNEALRLWPTAPAFSLYAKEDTVLGGEYPLEKGDELMVLIPQLHRDKTIWGDDVEEFRPERFENPSAIPQHAFKPFGNGQRACIGQQFALHEATLVLGMMLKHFDFEDHTNYELDIKETLTLKPEGFVVKAKSKKIPLGGIPSPSTEQSAKKVRKKAENAHNTPLLVLYGSNMGTAEGTARDLADIAMSKGFAPQVATLDSHAGNLPREGAVLIVTASYNGHPPDNAKQFVDWLDQASADEVKGVRYSVFGCGDKNWATTYQKVPAFIDETLAAKGAENIADRGEADASDDFEGTYEEWREHMWSDVAAYFNLDIENSEDNKSTLSLQFVDSAADMPLAKMHGAFSTNVVASKELQQPGSARSTRHLEIELPKEASYQEGDHLGVIPRNYEGIVNRVTARFGLDASQQIRLEAEEEKLAHLPLAKTVSVEELLQYVELQDPVTRTQLRAMAAKTVCPPHKVELEALLEKQAYKEQVLAKRLTMLELLEKYPACEMKFSEFIALLPSIRPRYYSISSSPRVDEKQASITVSVVSGEAWSGYGEYKGIASNYLAELQEGDTITCFISTPQSEFTLPKDPETPLIMVGPGTGVAPFRGFVQARKQLKEQGQSLGEAHLYFGCRSPHEDYLYQEELENAQSEGIITLHTAFSRMPNQPKTYVQHVMEQDGKKLIELLDQGAHFYICGDGSQMAPAVEATLMKSYADVHQVSEADARLWLQQLEEKGRYAKDVWAG
notes: expressed in transfected cells; host or cells: E. coli BL21(DE3) transformed with pT7Bm3Z
B1: the Michaelis constant (Km) in series [1] worked out at 67.8 ± 14.5 µM; in series [2], 0.37 ± 0.07 µM; in series [3], 7.96 ± 2.041 mM; in series [4], 0.51 ± 0.12 µM. The kcat in series [1] amounted to 1928 ± 114 mole NADPH/min/mole P450; in series [2], 3570 ± 88 mole NADPH/min/mole P450; in series [3] it was 5133.5 ± 641.3 mole NADPH/min/mole P450; in series [4], 2605 ± 61 mole NADPH/min/mole P450.
